Reference: the supplement of paper PMC10598134
± gives the standard deviation.

Assay: collision cross section of modified peptide (TIMS, N2, iRT-aligned); higher = larger / more extended gas-phase ion
In short: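 Synthetic peptide pools (~100 fmol/µL in 2% acetonitrile/0.1% formic acid, iRT standard spiked 1:40) were separated on a 120-min nanoflow C18 gradient at 60 °C. They were analysed on a timsTOF Pro/HT (dda-PASEF, nitrogen, ~2.4 mbar) and identified with MaxQuant. 1/K0 was calibrated with three reference ions and aligned run-wise to the median iRT peptide deviation. Collision cross section came from the Mason-Schamp equation, averaging 1–3 technical replicates of the most abundant feature per charge state.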

[1] = charge state: 2, modification: Glutarylation
[2] = charge state: 3, modification: Glutarylation
[3] = charge state: 2, modification: GlyGly (K)
[4] = charge state: 3, modification: GlyGly (K)
[5] = charge state: 2, modification: Malonyl
[6] = charge state: 2, modification: Methyl (K)
[7] = charge state: 3, modification: Methyl (K)
[8] = charge state: 2, modification: Propionyl
[9] = charge state: 2, modification: Succinyl
[10] = charge state: 3, modification: Succinyl
[11] = charge state: 2, modification: Trimethyl (K)
[12] = charge state: 3, modification: Trimethyl (K)
[13] = charge state: 2, modification: hydroxyisobutyryl
[14] = charge state: 2, modification: Acetyl (K)
[15] = charge state: 3, modification: Acetyl (K)
[16] = charge state: 2, modification: Biotin
[17] = charge state: 3, modification: Biotin
[18] = charge state: 2, modification: Butyryl
[19] = charge state: 3, modification: Butyryl
[20] = charge state: 2, modification: Crotonyl
[21] = charge state: 3, modification: Crotonyl
[22] = charge state: 2, modification: Dimethyl (K)
[23] = charge state: 3, modification: Dimethyl (K)
[24] = charge state: 2, modification: Formyl
[25] = charge state: 3, modification: Propionyl
[26] = charge state: 3, modification: hydroxyisobutyryl
[27] = charge state: 2, modification: Nitro (Y)

“LQAAYAGDKADDIQK [_LQAAYAGDK(Gluratylation)ADDIQK_]” showed a collision cross section [1] of 440.38 ± 0.95 Å² and a collision cross section [2] of 496.91 ± 1 Å².
For “LQAAYAGDKADDIQK [_LQAAYAGDK(GlyGly (K))ADDIQK_]”, the collision cross section [3] was 455.93 ± 1.6 Å² and the collision cross section [4] was 505.34 ± 0.35 Å².
In the case of “LQAAYAGDKADDIQK [_LQAAYAGDK(Malonyl)ADDIQK_]”, the collision cross section [5] is reported as 436.07 ± 1.2 Å².
With “LQAAYAGDKADDIQK [_LQAAYAGDK(Methyl (K))ADDIQK_]” the collision cross section [6] was 430.05 ± 1.4 Å² and the collision cross section [7] was 477.97 ± 2.6 Å².
“LQAAYAGDKADDIQK [_LQAAYAGDK(Propionyl)ADDIQK_]” gave a collision cross section [8] of 432.96 ± 1.1 Å².
With “LQAAYAGDKADDIQK [_LQAAYAGDK(Succinyl)ADDIQK_]” the collision cross section [9] was 436.68 ± 1.4 Å² and the collision cross section [10] was 489.74 ± 2.1 Å².
In the case of “LQAAYAGDKADDIQK [_LQAAYAGDK(Trimethyl (K))ADDIQK_]”, the collision cross section [11] is reported as 440.52 ± 0.59 Å² and the collision cross section [12] is reported as 477.2 ± 1.8 Å².
In the case of “LQAAYAGDKADDIQK [_LQAAYAGDK(hydroxyisobutyryl)ADDIQK_]”, the collision cross section [13] is reported as 440.97 ± 0.91 Å².
For “LQDVSGQLSSSKK [_LQDVSGQLSSSK(Acetyl (K))K_]”, the collision cross section [14] was 396.87 ± 1.3 Å² and the collision cross section [15] was 461.64 ± 3.7 Å².
Sequence LQDVSGQLSSSKK [_LQDVSGQLSSSK(Biotin)K_] has a collision cross section [16] of 425.22 ± 2.6 Å² and a collision cross section [17] of 506.69 Å².
With “LQDVSGQLSSSKK [_LQDVSGQLSSSK(Butyryl)K_]” the collision cross section [18] was 401.39 ± 0.74 Å² and the collision cross section [19] was 476.47 ± 3.2 Å².
In the case of “LQDVSGQLSSSKK [_LQDVSGQLSSSK(Crotonyl)K_]”, the collision cross section [20] is reported as 402.23 ± 0.9 Å² and the collision cross section [21] is reported as 469.03 ± 3.7 Å².
In the case of “LQDVSGQLSSSKK [_LQDVSGQLSSSK(Dimethyl (K))K_]”, the collision cross section [22] is reported as 407.51 ± 1.1 Å² and the collision cross section [23] is reported as 466.01 ± 2.4 Å².
Work on LQDVSGQLSSSKK [_LQDVSGQLSSSK(Formyl)K_] yielded a collision cross section [24] of 394.61 ± 0.21 Å².
Work on “LQDVSGQLSSSKK [_LQDVSGQLSSSK(Gluratylation)K_]” yielded a collision cross section [1] of 404.29 ± 0.99 Å² and a collision cross section [2] of 482.96 ± 1.3 Å².
In the case of “LQDVSGQLSSSKK [_LQDVSGQLSSSK(GlyGly (K))K_]”, the collision cross section [3] is reported as 438.61 ± 1.4 Å² and the collision cross section [4] is reported as 490.05 ± 4.9 Å².
With “LQDVSGQLSSSKK [_LQDVSGQLSSSK(Malonyl)K_]” the collision cross section [5] was 397.79 ± 0.61 Å².
For “LQDVSGQLSSSKK [_LQDVSGQLSSSK(Methyl (K))K_]”, the collision cross section [6] was 404.82 ± 1.9 Å² and the collision cross section [7] was 465.49 ± 8.7 Å².
“LQDVSGQLSSSKK [_LQDVSGQLSSSK(Propionyl)K_]” showed a collision cross section [8] of 399.52 ± 0.65 Å² and a collision cross section [25] of 471.63 Å².
Sequence “LQDVSGQLSSSKK [_LQDVSGQLSSSK(Succinyl)K_]” has a collision cross section [9] of 402.37 ± 0.79 Å² and a collision cross section [10] of 468.7 ± 14 Å².
“LQDVSGQLSSSKK [_LQDVSGQLSSSK(Trimethyl (K))K_]” showed a collision cross section [11] of 417.06 ± 1.1 Å² and a collision cross section [12] of 475.09 ± 1.5 Å².
In the case of “LQDVSGQLSSSKK [_LQDVSGQLSSSK(hydroxyisobutyryl)K_]”, the collision cross section [13] is reported as 404.16 ± 0.3 Å² and the collision cross section [26] is reported as 470.99 ± 5.5 Å².
“LQEKVESAQSEQK [_LQEK(Acetyl (K))VESAQSEQK_]” gave a collision cross section [14] of 412.85 ± 1.8 Å² and a collision cross section [15] of 502.13 ± 0.084 Å².
With LQEKVESAQSEQK [_LQEK(Biotin)VESAQSEQK_] the collision cross section [16] was 433.03 ± 0.23 Å² and the collision cross section [17] was 526.98 ± 0.34 Å².
Work on “LQEKVESAQSEQK [_LQEK(Butyryl)VESAQSEQK_]” yielded a collision cross section [18] of 419.43 ± 0.77 Å² and a collision cross section [19] of 504.21 ± 1.9 Å².
With “LQEKVESAQSEQK [_LQEK(Crotonyl)VESAQSEQK_]” the collision cross section [20] was 419.55 ± 0.85 Å² and the collision cross section [21] was 502.91 ± 1.6 Å².
For “LQEKVESAQSEQK [_LQEK(Dimethyl (K))VESAQSEQK_]”, the collision cross section [22] was 412.95 ± 1.6 Å² and the collision cross section [23] was 455.71 ± 2.1 Å².
Sequence LQEKVESAQSEQK [_LQEK(Formyl)VESAQSEQK_] has a collision cross section [24] of 410.52 ± 1.2 Å² and a collision cross section (charge state: 3, modification: Formyl) of 496.47 ± 0.53 Å².
For “LQEKVESAQSEQK [_LQEK(Gluratylation)VESAQSEQK_]”, the collision cross section [1] was 421.97 ± 0.48 Å² and the collision cross section [2] was 507.02 ± 1 Å².
In the case of “LQEKVESAQSEQK [_LQEK(GlyGly (K))VESAQSEQK_]”, the collision cross section [3] is reported as 427.55 ± 1.4 Å² and the collision cross section [4] is reported as 508.34 ± 0.87 Å².
For “LQEKVESAQSEQK [_LQEK(Malonyl)VESAQSEQK_]”, the collision cross section [5] was 413.7 ± 1.6 Å² and the collision cross section (charge state: 3, modification: Malonyl) was 504.23 ± 2.2 Å².
With “LQEKVESAQSEQK [_LQEK(Methyl (K))VESAQSEQK_]” the collision cross section [6] was 410.87 ± 2 Å² and the collision cross section [7] was 480.74 ± 20 Å².
With “LQEKVESAQSEQK [_LQEK(Propionyl)VESAQSEQK_]” the collision cross section [8] was 417.86 ± 1.3 Å² and the collision cross section [25] was 502.35 ± 1.5 Å².
“LQEKVESAQSEQK [_LQEK(Succinyl)VESAQSEQK_]” showed a collision cross section [9] of 417.9 ± 0.86 Å² and a collision cross section [10] of 502.42 ± 0.72 Å².
“LQEKVESAQSEQK [_LQEK(Trimethyl (K))VESAQSEQK_]” gave a collision cross section [11] of 419.24 ± 2.2 Å² and a collision cross section [12] of 470.87 ± 1.8 Å².
Sequence “LQEKVESAQSEQK [_LQEK(hydroxyisobutyryl)VESAQSEQK_]” has a collision cross section [13] of 422.92 ± 0.52 Å² and a collision cross section [26] of 502.35 ± 2.1 Å².
Sequence LQIASDENYK [_LQIASDENY(Nitro (Y))K_] has a collision cross section [27] of 364.55 ± 1.2 Å².
Work on LQIASDENYK [_LQIASDENY(Phospho (Y))K_] yielded a collision cross section (charge state: 2, modification: Phospho (Y)) of 374.64 ± 0.77 Å².
LQLEIDQKK [_LQLEIDQK(Acetyl (K))K_] gave a collision cross section [14] of 364.82 ± 0.76 Å².
LQLEIDQKK [_LQLEIDQK(Biotin)K_] showed a collision cross section [16] of 382.89 ± 0.23 Å².
LQLEIDQKK [_LQLEIDQK(Butyryl)K_] gave a collision cross section [18] of 370.32 ± 1.2 Å².
LQLEIDQKK [_LQLEIDQK(Crotonyl)K_] showed a collision cross section [20] of 366.56 Å².
Work on LQLEIDQKK [_LQLEIDQK(Dimethyl (K))K_] yielded a collision cross section [22] of 364.14 ± 0.52 Å² and a collision cross section [23] of 427.16 ± 2.1 Å².
In the case of LQLEIDQKK [_LQLEIDQK(Formyl)K_], the collision cross section [24] is reported as 362.42 ± 1 Å².
LQLEIDQKK [_LQLEIDQK(Gluratylation)K_] showed a collision cross section [1] of 373.2 ± 0.7 Å².
With LQLEIDQKK [_LQLEIDQK(GlyGly (K))K_] the collision cross section [3] was 376.75 ± 0.46 Å² and the collision cross section [4] was 433 ± 2.7 Å².
Sequence LQLEIDQKK [_LQLEIDQK(Malonyl)K_] has a collision cross section [5] of 367.76 ± 0.011 Å².
LQLEIDQKK [_LQLEIDQK(Methyl (K))K_] gave a collision cross section [6] of 367.47 ± 2.8 Å² and a collision cross section [7] of 429.39 ± 5.2 Å².
With LQLEIDQKK [_LQLEIDQK(Propionyl)K_] the collision cross section [8] was 368.05 ± 0.33 Å².
LQLEIDQKK [_LQLEIDQK(Succinyl)K_] gave a collision cross section [9] of 370.18 ± 1.1 Å².
In the case of LQLEIDQKK [_LQLEIDQK(Trimethyl (K))K_], the collision cross section [11] is reported as 370.49 ± 1.6 Å² and the collision cross section [12] is reported as 433.51 ± 3.7 Å².
“LQLEIDQKK [_LQLEIDQK(hydroxyisobutyryl)K_]” gave a collision cross section [13] of 371.26 ± 0.27 Å².
With “LQLGTPPPLLAARLVPPR [_LQLGTPPPLLAAR(Citrullination (R))LVPPR_]” the collision cross section (charge state: 3, modification: Citrullination (R)) was 576.16 ± 0.34 Å².
For LQNSYQPTNK [_LQNSY(Nitro (Y))QPTNK_], the collision cross section [27] was 362.69 ± 0.94 Å².
